# Tests used:
# [1] = target: Endogenous NSF of human aortic endothelial cells (HAEC) (human) (UniProt P46459); assay: cell-based or functional assay
# [2] = target: Recombinant RGS-(His)6-NSF (N-ethylmaleimide sensitive factor), wild-type (UniProt P18708); assay: cell-based or functional assay
# Sequence of Recombinant RGS-(His)6-NSF (N-ethylmaleimide sensitive factor), wild-type (P18708 other isoform, or with tags, fused parts or gaps limits assumed): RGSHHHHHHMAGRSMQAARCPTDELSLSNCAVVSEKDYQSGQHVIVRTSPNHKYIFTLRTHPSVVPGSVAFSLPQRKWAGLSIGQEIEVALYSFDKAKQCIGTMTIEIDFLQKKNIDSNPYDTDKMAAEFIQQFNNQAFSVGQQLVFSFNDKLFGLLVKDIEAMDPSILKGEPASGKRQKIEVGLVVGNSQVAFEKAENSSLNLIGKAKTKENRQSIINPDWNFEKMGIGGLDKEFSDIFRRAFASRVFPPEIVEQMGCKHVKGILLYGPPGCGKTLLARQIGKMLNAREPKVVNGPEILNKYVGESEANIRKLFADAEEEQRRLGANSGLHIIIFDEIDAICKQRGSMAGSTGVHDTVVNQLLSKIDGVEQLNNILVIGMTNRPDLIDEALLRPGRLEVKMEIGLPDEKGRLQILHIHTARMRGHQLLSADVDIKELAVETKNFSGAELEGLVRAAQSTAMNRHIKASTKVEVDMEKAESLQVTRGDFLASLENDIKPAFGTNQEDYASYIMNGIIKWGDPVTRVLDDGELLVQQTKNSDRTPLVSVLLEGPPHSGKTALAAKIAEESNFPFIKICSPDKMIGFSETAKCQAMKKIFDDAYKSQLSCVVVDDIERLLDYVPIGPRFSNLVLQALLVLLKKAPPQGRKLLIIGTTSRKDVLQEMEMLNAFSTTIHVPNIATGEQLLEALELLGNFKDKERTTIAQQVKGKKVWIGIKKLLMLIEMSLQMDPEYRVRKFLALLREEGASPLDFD
substance,measurement,setting,value
TAT-NSF81 (peptide),IC50% of endothelial exocytosis (vWF release),[1],1 to 10 µM
same,IC50% of NSF ATPase activity,[2],1 to 10 µM
